# Positions count from the first letter of the chain named.
# B1: MOR12509 (antibody, human IgG1, kappa, V domains shown)
# VH: QVQLVQSGAEVKKPGESLKISCKGSGYSFTNSWVAWVRQMPGKGLEWMGIIYPGNSDTIYSPSFQGQVTISADKSISTAYLQWSSLKASDTAMYYCARVHIIQPPSAWSYNAMDVWGQGTLVTVSS
# VL: DIQMTQSPSSLSASVGDRVTITCRASQSITHYLNWYQQKPGKAPKLLIFGASNLQSGVPSRFSGSGSGTDFTLTISSLQPEDFATYYCQQAFVDPSTTFGQGTKVEIKR
# notes: tested as IgG
# B2: MOR12510 (antibody, human IgG1, kappa, V domains shown)
# VH: B1 VH
# VL: DIQMTQSPSSLSASVGDRVTITCRASQSISTYLNWYQQKPGKAPKLLIFGASNLQSGVPSRFSGSGSGTDFTLTISSLQPEDFATYYCQQDIDEPWTFGQGTKVEIKR
# notes: tested as IgG
# B3: MOR14535 (antibody, human IgG1, kappa, V domains shown)
# VH: B1 VH with Q1E, N31T, S32T, N55L
# VL: B2 VL with F49Y, D91S, D93T, P95L, W96F
# notes: tested as IgG
# B4: MOR14536 (antibody, human IgG1, kappa, V domains shown)
# VH: B1 VH with Q1E, T30S, S32Y, V34I, N55Q
# VL: B2 VL with F49Y, D91S, D93T, P95L, W96F
# notes: tested as IgG
# B5: MOR13767 (antibody, human IgG1, kappa, V domains shown)
# VH: B1 VH with N31T, N55Q
# VL: B2 VL with D91S, D93T, P95L, W96F
# notes: tested as IgG
# B6: MOR13867 (antibody, human IgG1, kappa, V domains shown)
# VH: B1 VH with T30S, S32Y, V34I, N55Q
# VL: B2 VL with D91S, D93T, P95L, W96F
# notes: tested as IgG
# B7: MOR13868 (antibody, human IgG1, kappa, V domains shown)
# VH: B1 VH with T30S, S32Y, V34I, N55L
# VL: B2 VL with D91S, D93T, P95L, W96F
# notes: tested as IgG
# B8: MOR13869 (antibody, human IgG1, kappa, V domains shown)
# VH: B1 VH with T30S, S32Y, V34I, N55G
# VL: B2 VL with D91S, D93T, P95L, W96F
# notes: tested as IgG
# B9: MOR13870 (antibody, human IgG1, kappa, V domains shown)
# VH: B1 VH with T30S, S32Y, V34I, N55T
# VL: B2 VL with D91S, D93T, P95L, W96F
# notes: tested as IgG
# B10: MOR13871 (antibody, human IgG1, kappa, V domains shown)
# VH: B1 VH with T30S, S32Y, V34I, N55S
# VL: B2 VL with D91S, D93T, P95L, W96F
# notes: tested as IgG
# Target: T1, Human HER3, endogenous, on human cancer cell lines (SK-Br-3, MCF7, BT-474) (human, UniProt P21860 20-1342)
# T1 sequence (P21860 20-1342): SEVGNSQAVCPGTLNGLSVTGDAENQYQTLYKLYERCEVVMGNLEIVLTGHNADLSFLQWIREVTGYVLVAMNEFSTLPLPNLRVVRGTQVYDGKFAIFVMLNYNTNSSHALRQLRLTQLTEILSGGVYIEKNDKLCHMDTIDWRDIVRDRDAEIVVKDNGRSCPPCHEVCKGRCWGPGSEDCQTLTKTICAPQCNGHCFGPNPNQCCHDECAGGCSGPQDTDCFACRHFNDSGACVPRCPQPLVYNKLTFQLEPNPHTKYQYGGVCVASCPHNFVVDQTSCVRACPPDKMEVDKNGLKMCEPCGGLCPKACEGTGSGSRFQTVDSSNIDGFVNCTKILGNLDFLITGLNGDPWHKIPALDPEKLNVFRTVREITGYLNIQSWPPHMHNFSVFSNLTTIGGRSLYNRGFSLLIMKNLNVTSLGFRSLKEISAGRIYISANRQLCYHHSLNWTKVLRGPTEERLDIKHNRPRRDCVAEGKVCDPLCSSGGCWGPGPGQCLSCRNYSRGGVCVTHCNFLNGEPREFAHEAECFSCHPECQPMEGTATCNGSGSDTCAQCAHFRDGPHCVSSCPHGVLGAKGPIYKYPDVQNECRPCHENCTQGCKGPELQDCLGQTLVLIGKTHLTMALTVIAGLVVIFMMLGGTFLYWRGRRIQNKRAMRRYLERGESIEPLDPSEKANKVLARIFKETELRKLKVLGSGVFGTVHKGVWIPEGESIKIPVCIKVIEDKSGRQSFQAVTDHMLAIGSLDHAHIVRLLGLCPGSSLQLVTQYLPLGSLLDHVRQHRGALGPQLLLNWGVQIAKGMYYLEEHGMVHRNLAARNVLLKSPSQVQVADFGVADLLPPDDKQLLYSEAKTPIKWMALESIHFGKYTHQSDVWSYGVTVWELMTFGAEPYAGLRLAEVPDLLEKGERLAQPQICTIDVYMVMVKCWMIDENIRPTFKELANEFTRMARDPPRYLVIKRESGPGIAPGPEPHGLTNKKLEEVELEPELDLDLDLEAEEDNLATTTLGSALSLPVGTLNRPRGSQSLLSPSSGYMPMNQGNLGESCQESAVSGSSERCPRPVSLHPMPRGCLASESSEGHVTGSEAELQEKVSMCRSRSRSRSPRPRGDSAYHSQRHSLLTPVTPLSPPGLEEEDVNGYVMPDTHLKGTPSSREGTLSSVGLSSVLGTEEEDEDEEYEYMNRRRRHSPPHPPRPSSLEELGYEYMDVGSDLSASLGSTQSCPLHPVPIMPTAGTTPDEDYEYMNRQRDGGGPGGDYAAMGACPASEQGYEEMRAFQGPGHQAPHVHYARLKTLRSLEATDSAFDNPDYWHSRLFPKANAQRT
# Assay: cell-based or functional assay
Binder,BT474 pHER3 % inhibition [%],MCF7 pHER3 % inhibition [%],MCF7 pHER3 IC50 [pM],SK-Br-3 pHER3 % inhibition [%],SK-Br-3 pHER3 IC50 [pM],BT474 pHER3 IC50 [pM]
B1,84,70,712,76,483,
B2,85,73,450,78,157,34
B3,,73,533,76,231,
B4,,83,379,76,239,
B5,61,,,78,130,496
B6,71,78,267,83,107,643
B7,68,75,189,83,205,894
B8,55,64,427,77,263,1330
B9,66,71,84,81,110,535
B10,68,74,43,83,105,608

# Target: T1, Human HER3, endogenous, on human cancer …
# Assay: cell-based or functional assay
# Remark: another data set of the same source
Binder,BT-474 pAkt (S473) % inhibition [%],BT-474 pAkt (S473) IC50 [pM],SK-Br-3 pAkt (S473) % inhibition [%],SK-Br-3 pAkt (S473) IC50 [pM]
B5,82,167,89,92
B6,84,472,95,120
B7,81,537,92,78
B8,79,3040,91,212
B9,77,424,91,76
B10,83,1630,93,97

# Target: T1, Human HER3, endogenous, on human cancer …
# Assay: cell-based or functional assay
# Remark: another data set of the same source
Binder,MCF7 proliferation % inhibition [%],MCF7 proliferation IC50 [nM],SK-Br-3 proliferation % inhibition [%],SK-Br-3 proliferation IC50 [nM],BT-474 proliferation % inhibition [%],BT-474 proliferation IC50 [nM]
B1,24,1.47,45,0.572,,
B2,25,0.483,44,0.355,,
B3,,,66,0.271,,
B4,,,56,0.181,,
B5,,,48,0.285,48,0.924
B6,69,0.056,41,0.31,42,0.376
B7,58,,29,0.251,39,1.72
B8,52,,24,5.41,28,10.6
B9,48,0.061,39,1.14,43,0.539
B10,58,,32,1.29,43,1

# Target: T2, Hu HER3: CD33-[Human HER3, residues 20-640]-TAG (human, UniProt P21860 20-640)
# T2 construct: also called hu HER3-Tag; HER3-Tag; not shown: C-terminal TAG (e.g., FLAG TAG)
# T2 sequence (P21860 20-640): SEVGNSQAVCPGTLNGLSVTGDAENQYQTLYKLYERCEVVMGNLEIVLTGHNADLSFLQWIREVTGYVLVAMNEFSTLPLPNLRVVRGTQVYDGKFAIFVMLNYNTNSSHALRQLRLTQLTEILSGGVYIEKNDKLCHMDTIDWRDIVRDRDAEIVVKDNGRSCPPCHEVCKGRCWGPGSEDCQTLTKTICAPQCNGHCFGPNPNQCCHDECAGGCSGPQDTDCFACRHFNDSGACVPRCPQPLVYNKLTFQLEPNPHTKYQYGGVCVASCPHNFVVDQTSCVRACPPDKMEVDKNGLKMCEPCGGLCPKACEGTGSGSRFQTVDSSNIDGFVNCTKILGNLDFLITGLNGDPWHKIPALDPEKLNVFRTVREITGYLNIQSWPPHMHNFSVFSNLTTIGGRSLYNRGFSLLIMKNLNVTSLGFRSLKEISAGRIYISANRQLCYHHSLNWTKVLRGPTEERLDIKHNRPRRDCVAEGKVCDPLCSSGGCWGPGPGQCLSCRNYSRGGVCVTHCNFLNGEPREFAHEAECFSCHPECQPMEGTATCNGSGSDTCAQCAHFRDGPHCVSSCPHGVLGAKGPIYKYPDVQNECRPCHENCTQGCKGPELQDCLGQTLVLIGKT
# Assay: SET, IgG vs soluble HER3-Tag
# Experimental: (§1) Affinity determination in solution was essentially performed as previously described (Friguet et al., (1985) J Immunol Methods 77:305-19). In order to improve the sensitivity and accuracy of the SET method, it was transferred from classical ELISA to ECL based technology (Haenel et al., (2005) Anal Biochem 339:182-84).
# (§2) The data was evaluated with XLfit software (ID Business Solutions) applying customized fitting models.
# (§3) Antibody affinity was determined by solution equilibrium titration (SET) as described above. The results are summarized in Table 3 and example titration curves for MOR12616 and MOR12925 are contained in FIG. 1.
row,Binder,Kd [nM]
1,B1,0.078
2,B2,0.055
3,B3,0.235
4,B4,0.072
5,B5,0.024
6,B6,0.03
7,B7,0.133
8,B8,0.23
9,B9,0.173
10,B10,0.193

# Target: T3, Cyno HER3: CD33-[Cyno HER3, residues 20-643]-TAG (cynomolgus, UniProt G7PIG5 20-643)
# T3 construct: also called cy HER3-Tag; not shown: C-terminal TAG (e.g., FLAG TAG)
# T3 sequence (G7PIG5 entry or part of it): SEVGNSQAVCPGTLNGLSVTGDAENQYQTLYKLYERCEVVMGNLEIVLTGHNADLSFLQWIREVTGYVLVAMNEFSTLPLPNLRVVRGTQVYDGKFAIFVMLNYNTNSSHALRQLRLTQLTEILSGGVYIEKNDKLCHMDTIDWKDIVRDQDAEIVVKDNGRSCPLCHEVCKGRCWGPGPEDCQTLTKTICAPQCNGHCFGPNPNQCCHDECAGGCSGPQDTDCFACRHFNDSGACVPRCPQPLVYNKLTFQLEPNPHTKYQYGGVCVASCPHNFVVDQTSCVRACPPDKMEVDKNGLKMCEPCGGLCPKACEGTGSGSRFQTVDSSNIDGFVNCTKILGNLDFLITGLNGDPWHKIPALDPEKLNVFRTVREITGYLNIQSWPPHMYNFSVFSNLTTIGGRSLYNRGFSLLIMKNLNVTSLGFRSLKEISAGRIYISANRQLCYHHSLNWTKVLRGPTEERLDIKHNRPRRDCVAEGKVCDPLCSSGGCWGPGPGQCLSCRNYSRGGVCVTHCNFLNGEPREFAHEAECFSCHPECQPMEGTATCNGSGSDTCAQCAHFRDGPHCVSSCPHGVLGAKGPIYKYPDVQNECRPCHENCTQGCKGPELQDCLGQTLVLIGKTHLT
# Assay: SET, IgG vs soluble HER3-Tag
# Experimental: as §1, §2, §3
row,Binder,Kd [nM]
1,B1,0.32
2,B2,0.4
3,B3,0.215
4,B4,0.044

# Target: T4, Mu HER3: CD33-[Murine HER3, residues 20-643]-TAG (murine, UniProt Q61526 20-643)
# T4 construct: also called mu HER3-Tag; not shown: C-terminal TAG (e.g., FLAG TAG)
# T4 sequence (Q61526 20-643): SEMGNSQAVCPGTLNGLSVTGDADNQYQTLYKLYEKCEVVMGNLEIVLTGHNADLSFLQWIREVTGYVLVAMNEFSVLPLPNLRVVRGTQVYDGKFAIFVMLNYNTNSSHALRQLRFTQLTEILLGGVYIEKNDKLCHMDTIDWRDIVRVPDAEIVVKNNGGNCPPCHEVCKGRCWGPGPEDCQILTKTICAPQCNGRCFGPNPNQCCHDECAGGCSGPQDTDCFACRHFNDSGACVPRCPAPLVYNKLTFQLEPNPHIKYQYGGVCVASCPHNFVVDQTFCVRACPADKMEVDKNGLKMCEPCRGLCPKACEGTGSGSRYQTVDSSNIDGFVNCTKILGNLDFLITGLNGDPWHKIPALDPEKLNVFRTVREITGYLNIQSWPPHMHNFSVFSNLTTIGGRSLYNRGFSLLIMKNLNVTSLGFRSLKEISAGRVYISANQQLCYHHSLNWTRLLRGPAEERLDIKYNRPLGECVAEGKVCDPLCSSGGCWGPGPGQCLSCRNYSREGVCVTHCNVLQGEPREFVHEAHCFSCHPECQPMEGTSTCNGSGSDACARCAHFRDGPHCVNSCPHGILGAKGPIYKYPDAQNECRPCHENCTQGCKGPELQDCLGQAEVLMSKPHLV
# Assay: SET, IgG vs soluble HER3-Tag
# Experimental: as §1, §2, §3
row,Binder,Kd [nM]
1,B1,0.25
2,B2,0.2
3,B3,0.125
4,B4,0.029

# Target: T5, Rat HER3: CD33-[Rat HER3, residues 20-643]-TAG (rat, UniProt Q62799 20-643)
# T5 construct: also called ra HER3-Tag; not shown: C-terminal TAG (e.g., FLAG TAG)
# T5 sequence (Q62799 20-643): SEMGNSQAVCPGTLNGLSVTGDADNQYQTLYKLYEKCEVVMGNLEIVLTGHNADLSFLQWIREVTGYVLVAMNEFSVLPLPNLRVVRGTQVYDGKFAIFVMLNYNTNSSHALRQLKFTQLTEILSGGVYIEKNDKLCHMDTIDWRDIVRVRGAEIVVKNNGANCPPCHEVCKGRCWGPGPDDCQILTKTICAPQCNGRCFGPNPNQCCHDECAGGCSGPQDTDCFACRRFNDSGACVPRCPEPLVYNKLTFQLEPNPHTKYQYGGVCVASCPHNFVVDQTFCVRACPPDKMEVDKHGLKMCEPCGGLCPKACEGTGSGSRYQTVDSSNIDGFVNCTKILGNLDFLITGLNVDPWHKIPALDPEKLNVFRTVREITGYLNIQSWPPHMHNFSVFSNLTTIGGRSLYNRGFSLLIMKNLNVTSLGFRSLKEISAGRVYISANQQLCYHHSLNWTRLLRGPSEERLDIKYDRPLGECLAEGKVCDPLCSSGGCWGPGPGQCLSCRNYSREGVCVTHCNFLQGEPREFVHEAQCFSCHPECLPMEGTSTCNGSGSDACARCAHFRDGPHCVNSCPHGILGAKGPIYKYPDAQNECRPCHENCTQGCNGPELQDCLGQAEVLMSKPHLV
# Assay: SET, IgG vs soluble HER3-Tag
# Experimental: as §1, §2, §3
row,Binder,Kd [nM]
1,B1,0.48
2,B2,0.75
3,B3,0.315
4,B4,0.064

# Target: T6, HER3 on JTC12 cells
# T6 construct: whole, on cells
# Assay: FACS titration on JTC12 cells
row,Binder,EC50 [nM]
1,B3,65.1
2,B4,1.36

# Target: T7, HER3 on B16-F10 cells (UniProt Q61526 20-1339)
# T7 construct: whole, on cells
# Assay: FACS titration on B16-F10 cells
row,Binder,EC50 [nM]
1,B3,0.524
2,B4,0.625

# Target: T1, Human HER3, endogenous, on human cancer …
# Assay: FACS titration on SK-Br-3 cells
# Experimental: The binding of antibodies to endogenous human antigen expressed on human cancer cells was accessed by FACS. In order to determine antibody EC₅₀ values SK-Br-3 cells were harvested with accutase and diluted to 1×10⁶ cells/mL in FACS buffer (PBS/3% FBS/0.2% NaN₃). 1×10⁵ cells/well were added to each well of a 96-well plate (Nunc) and centrifuged at 210 g for 5 minutes at 4° C. before removing the supernatant. Serial dilutions of test antibodies (diluted in 1:4 dilution steps with FACS buffer) were added to the pelleted cells and incubated for 1 hour on ice. The cells were washed and pelleted three times with 100 μL FACS buffer. PE conjugated goat anti-human IgG (Jackson ImmunoResearch) diluted 1/200 with FACS buffer were added to the cells and incubated on ice for 1 hour. Additional washing steps were performed three times with 100 μL FACS buffer followed by centrifugation steps at 210 g for 5 minutes at 4° C. Finally, cells were resuspended in 200 μL FACS buffer and fluorescence values were measured with a FACSArray (BD Biosciences). The amount of cell surface bound anti-HER3 antibody was assessed by measuring the mean channel fluorescence.
# The ability of the identified antibodies to bind HER3 expressing cells was determined by calculating EC₅₀ values for their binding to the HER2 amplified cell line SK-Br-3 (see FIG. 2 and Table 4).
row,Binder,EC50 [nM]
1,B3,2.08
2,B4,1.27
